No end group written: not given here. fluorescein = fluorescein tag at the N-terminus
Molecular target: non-muscle actin
Test: F-actin co-sedimentation, peptide fluorescence in pellet over total, hyperbolic fit

Kd: 5.4 µM
B1: F-Lifeact (chemically synthesized 17aa Lifeact peptide tagged with fluorescein at its N-terminus) (peptide)
peptide: fluorescein-MGVADLIKKFESISKEE
notes: also called fluorescein conjugated Lifeact; F-Lifeact peptide
